In the test the target is T1, recombinant MyoD protein (UniProt P10085 1-318).
T1 sequence (looked up): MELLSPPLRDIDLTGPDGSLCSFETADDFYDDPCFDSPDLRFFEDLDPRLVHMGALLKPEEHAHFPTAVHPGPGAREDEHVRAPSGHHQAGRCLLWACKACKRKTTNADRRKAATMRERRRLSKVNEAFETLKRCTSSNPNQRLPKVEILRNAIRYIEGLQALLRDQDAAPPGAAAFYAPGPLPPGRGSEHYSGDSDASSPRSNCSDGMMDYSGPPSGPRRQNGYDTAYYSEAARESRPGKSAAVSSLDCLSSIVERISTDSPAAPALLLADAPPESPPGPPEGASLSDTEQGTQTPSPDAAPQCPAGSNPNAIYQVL
In words: pull-down.

B1: FoxO3 (natural protein, mouse (endogenous in C2C12), UniProt Q9WVH4 1-672, looked up)
chain: MAEAPASPVPLSPLEVELDPEFEPQSRPRSCTWPLQRPELQASPAKPSGETAADSMIPEEDDDEDDEDGGGRASSAMVIGGGVSSTLGSGLLLEDSAMLLAPGGQDLGSGPASAAGALSGGTPTQLQPQQPLPQPQPGAAGGSGQPRKCSSRRNAWGNLSYADLITRAIESSPDKRLTLSQIYEWMVRCVPYFKDKGDSNSSAGWKNSIRHNLSLHSRFMRVQNEGTGKSSWWIINPDGGKSGKAPRRRAVSMDNSNKYTKSRGRAAKKKAALQAAPESADDSPSQLSKWPGSPTSRSSDELDAWTDFRSRTNSNASTVSGRLSPILASTELDDVQDDDGPLSPMLYSSSASLSPSVSKPCTVELPRLTDMAGTMNLNDGLAENLMDDLLDNIALPPSQPSPPGGLMQRGSSFPYTAKSSGLGSPTGSFNSTVFGPSSLNSLRQSPMQTIQENRPATFSSVSHYGNQTLQDLLASDSLSHSDVMMTQSDPLMSQASTAVSAQNARRNVMLRNDPMMSFAAQPTQGSLVNQNLLHHQHQTQGALGGSRALSNSVSNMGLSDSSSLGSAKHQQQSPASQSMQTLSDSLSGSSLYSASANLPVMGHDKFPSDLDLDMFNGSLECDMESIIRSELMDADGLDFNFDSLISTQNVVGLNVGNFTGAKQASSQSWVPG
Take B1: the “fold retrieval with E-box motif DNA against without” value was found to be 1.6 fold.

Values taken from publication PMC5587775 (Nucleic Acids Research, 2017).
